Measured values taken from article PMC9478400, “Identification and characterization of a novel hydroxylamine oxidase, DnfA, that catalyzes the oxidation of hydroxylamine to N2” (The Journal of Biological Chemistry, 2022).

Legend:
[1] = molecular target: T1, DnfA (Alcaligenes ammonioxydans, UniProt A0ABX8SXK4); assay: isothermal titration calorimetry; assay type: binding; conditions: 25 °C; hydroxylamine injected into enzyme
T1 construct: gene FE795_13025; full-length, 6xHis-tagged, pET-21a, E. coli BL21(DE3); dimer by gel filtration; diiron (residues Glu88, Glu123, His126, Glu182, His209, Glu213, His216)
T1 sequence (A0ABX8SXK4 1-317): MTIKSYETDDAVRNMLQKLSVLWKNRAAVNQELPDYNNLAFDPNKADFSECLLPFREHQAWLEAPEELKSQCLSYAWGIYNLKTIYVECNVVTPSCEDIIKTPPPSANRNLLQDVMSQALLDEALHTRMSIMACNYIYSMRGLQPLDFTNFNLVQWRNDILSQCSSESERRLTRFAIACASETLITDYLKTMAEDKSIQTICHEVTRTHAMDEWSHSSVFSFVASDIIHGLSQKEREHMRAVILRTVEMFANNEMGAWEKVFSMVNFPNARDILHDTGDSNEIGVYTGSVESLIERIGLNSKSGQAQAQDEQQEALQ

[2] = molecular target: T1, DnfA; assay: differential scanning fluorimetry; assay type: binding; conditions: 10 mM compound, 100 μg/ml DnfA, 20 mM Tris-HCl pH 8.0, SYPRO Orange
[3] = molecular target: DnfA hydroxylamine oxidase of Alcaligenes ammonioxydans HO-1 (Alcaligenes ammonioxydans HO-1); assay: SEC; gel filtration of native DnfA on Superdex 200 Increase 10/300 GL; mobile phase 20 mM Tris-HCl, 150 mM NaCl, pH 8.0; UV absorbance at 280 nm
[4] = substrate: NO; assay: Michaelis-Menten, nonlinear regression, N2-forming hydroxylamine oxidation; assay type: biochemical, Alcaligenes ammonioxydans; conditions: 10 μM DnfA, 100 μM FAD, 1 mM NADH, atmospheric O2, 15 to 400 μM NH2OH
Excerpt: Michaelis-Menten, nonlinear regression, N2-forming hydroxylamine oxidation on DnfA | the Michaelis–Menten constant (Km) for hydroxylamine

**Q.** With `NO` [hydroxylamine] as the molecule, how does the isothermal titration calorimetry [1] read?
**A.** none of them interacted with ammonia, but DnfA bound to hydroxylamine

**Q.** What about the differential scanning fluorimetry [2] of the same molecule?
**A.** DSF test demonstrated also that DnfA bound hydroxylamine

**Q.** With “DnfA hydroxylamine oxidase of Alcaligenes ammonioxydans HO-1 (enzyme)” as the molecule, how does the stoichiometry N [3] read?
**A.** 2

B1: DnfA (Alcaligenes ammonioxydans) (protein)
chain: MTIKSYETDDAVRNMLQKLSVLWKNRAAVNQELPDYNNLAFDPNKADFSECLLPFREHQAWLEAPEELKSQCLSYAWGIYNLKTIYVECNVVTPSCEDIIKTPPPSANRNLLQDVMSQALLDEALHTRMSIMACNYIYSMRGLQPLDFTNFNLVQWRNDILSQCSSESERRLTRFAIACASETLITDYLKTMAEDKSIQTICHEVTRTHAMDEWSHSSVFSFVASDIIHGLSQKEREHMRAVILRTVEMFANNEMGAWEKVFSMVNFPNARDILHDTGDSNEIGVYTGSVESLIERIGLNSKSGQAQAQDEQQEALQ
notes: full-length, 6xHis-tagged, pET-21a, E. coli BL21(DE3); dimer by gel filtration; diiron (residues Glu88, Glu123, His126, Glu182, His209, Glu213, His216)
**Q.** For B1, which Km [4] is on record?
**A.** 92.9 ± 3.0 µM

**Q.** And the kcat [4]?
**A.** 0.028 ± 0.001 s⁻¹
